Test results as given in publication PMC10183829, “Shuffled ATG8 interacting motifs form an ancestral bridge between UFMylation and autophagy” (The EMBO Journal, 2023).

T1: GST-ATG8A, Q8LEM4
T1 chain: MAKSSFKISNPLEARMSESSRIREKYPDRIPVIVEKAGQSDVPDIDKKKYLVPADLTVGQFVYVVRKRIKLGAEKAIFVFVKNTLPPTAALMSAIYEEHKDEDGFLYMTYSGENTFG


Tests used:
GST-ATG8A, Q8LEM4 = target: T1, GST-ATG8A, Q8LEM4; assay: microscopy-based protein-protein interaction assay (on-bead binding, confocal); settings: chain shown with the change; 1 μM C53 protein; glutathione-sepharose beads with GST-ATG8A; parent: est. 1.0; read off a plot
[1] = target: GST-GABARAP (human), O95166; assay: microscopy-based on-bead protein-protein interaction assay; settings: remark: other sources report otherwise
Sequence of GST-GABARAP (human), O95166 (O95166 whole entry): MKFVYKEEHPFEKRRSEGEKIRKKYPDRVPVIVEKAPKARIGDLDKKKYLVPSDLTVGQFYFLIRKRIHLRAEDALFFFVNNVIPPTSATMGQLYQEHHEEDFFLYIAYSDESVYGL

Binder | response (normalized fluorescence) (GST-ATG8A, Q8LEM4) | percent less recruited than the wild type [1] [%]
mCh-HsC53, Q96JB5 IDWG267WDGI; IDWG292WDGI; IDWG310WDGI (protein) MEDHQHVPIDIQTSKLLDWLVDRRHCSLKWQSLVLTIREKINAAIQDMPESEEIAQLLSGSYIHYFHCLRILDLLKGTEASTKNIFGRYSSQRMKDWQEIIALYEKDNTYLVELSSLLVRNVNYEIPSLKKQIAKCQQLQQEYSRKEEECQAGAAEMREQFYHSCKQYGITGENVRGELLALVKDLPSQLAEIGAAAQQSLGEAIDVYQASVGFVCESPTEQVLPMLRFVQKRGNSTVYEWRTGTEPSVVERPHLEELPEQVAEDAWDGIDFGVEAVSEGTDSGISAEAAGWDGIIFPESDSKDPGGDGWDGIDDAVALQITVLEAGTQAPEGVARGPDALTLLEYTETRNQFLDELMELEIFLAQRAVELSEEADVLSVSQFQLAPAILQGQTKEKMVTMVSVLEDLIGKLTSLQLQHLFMILASPRYVDRVTEFLQQKLKQSQLLALKKELMVQKQQEALEEQAALEPKLDLLLEKTKELQKLIEADISKRYSGRPVNLMGTSL | 1.2 | 
mCh-HsC53^sAIM (W269A, W294A, W312A), Q96JB5 1-506 (natural protein) MEDHQHVPIDIQTSKLLDWLVDRRHCSLKWQSLVLTIREKINAAIQDMPESEEIAQLLSGSYIHYFHCLRILDLLKGTEASTKNIFGRYSSQRMKDWQEIIALYEKDNTYLVELSSLLVRNVNYEIPSLKKQIAKCQQLQQEYSRKEEECQAGAAEMREQFYHSCKQYGITGENVRGELLALVKDLPSQLAEIGAAAQQSLGEAIDVYQASVGFVCESPTEQVLPMLRFVQKRGNSTVYEWRTGTEPSVVERPHLEELPEQVAEDAIDAGDFGVEAVSEGTDSGISAEAAGIDAGIFPESDSKDPGGDGIDAGDDAVALQITVLEAGTQAPEGVARGPDALTLLEYTETRNQFLDELMELEIFLAQRAVELSEEADVLSVSQFQLAPAILQGQTKEKMVTMVSVLEDLIGKLTSLQLQHLFMILASPRYVDRVTEFLQQKLKQSQLLALKKELMVQKQQEALEEQAALEPKLDLLLEKTKELQKLIEADISKRYSGRPVNLMGTSL |  | 78
